In patent US5935824A, “Protein expression system” (Technologene, Inc., priority 1996, dated 1999) one finds kcat data, which are given here for one protein.

Substrate in this series: C[C@H](NC(=O)[C@H](Cc1ccccc1)NC(=O)OCc1ccccc1)C(=O)O
As to the kind of experiment: Flow digestion of N-CBZ-peptides through CPD-Y Acti Disk, ninhydrin assays. Format: biochemical, yeast. As to conditions: other: free enzyme; calculated from Sigma specific activity. The protocol: The reported Km values for CPD-Y have been generated using extremely low enzyme concentration compared to substrate concentration. The value for Km represents the concentration of substrate that will produce 1/2 the maximum velocity for the initial reaction rates. During the testing of the immobilized CPD-Y enzyme disks with various dipeptide substrates, the maximum flow rate that can be achieved without any substantial increase in the pressure of the solution, is 4 ml/min. At this flow rate, the substrate remains within the immobilized enzyme matrix for 1.74 seconds. This value is determined by dividing the internal porous volume of the matrix to which the enzyme is immobilized (115 μL/4000 μL, min^-1). […]
Standard ninhydrin assay: Hydrolysis of the non-proline containing N-CBZ-dipeptides was determined by assaying the amount of free amino acid released by a colorometric ninhydrin reaction at a pH greater than 5.2. […] Samples were then cooled to room temperature and 600 μl of 60% ethanol was added as the diluent and the absorbance was read at 570 nm on a Beckman DU 7000 spectrophotometer.
Proline ninhydrin assay: Hydrolysis of proline-containing N-CBZ-dipeptides were measured with a modified version of the assay described by Magne and Larher [Anal. Biochem., 200:115 (1982)]. […]

B1: carboxypeptidase Y (CPD-Y) immobilized to Acti-Disk (Saccharomyces cerevisiae S288C) (protein)
chain: KIKDPKILGIDPNVTQYTGYLDVEDEDKHFFFWTFESRNDPAKDPVILWLNGGPGCSSLTGLFFELGPSSIGPDLKPIGNPYSWNSNATVIFLDQPVNVGFSYSGSSGVSNTVAAGKDVYNFLELFFDQFPEYVNKGQDFHIAGESYAGHYIPVFASEILSHKDRNFNLTSVLIGNGLTDPLTQYNYYEPMACGEGGEPSVLPSEECSAMEDSLERCLGLIESCYDSQSVWSCVPATIYCNNAQLAPYQRTGRNVYDIRKDCEGGNLCYPTLQDIDDYLNQDYVKEAVGAEVDHYESCNFDINRNFLFAGDWMKPYHTAVTDLLNQDLPILVYAGDKDFICNWLGNKAWTDVLPWKYDEEFASQKVRNWTASITDEVAGEVKSYKHFTYLRVFNGGHMVPFDVPENALSMVNEWIHGGFSL
notes: purchased Sigma
Regarding B1, the kcat is 6200 min⁻¹.
